From paper PMC3176292, “Mutations in Protein-Binding Hot-Spots on the Hub Protein Smad3 Differentially Affect Its Protein Interactions and Smad3-Regulated Gene Expression” (PLoS ONE, 2011)
Residue numbers refer to the chain shown, from its start. Names may count otherwise.

T1: Flag-Smad4, full length (UniProt Q13485 1-552)
T1 construct: Smad4; plasmid pCMV5-Flag-Smad4 (from J. Massagué); also called Smad4 FL; source: HEK-293, transfected, in lysate
T1 sequence (looked up): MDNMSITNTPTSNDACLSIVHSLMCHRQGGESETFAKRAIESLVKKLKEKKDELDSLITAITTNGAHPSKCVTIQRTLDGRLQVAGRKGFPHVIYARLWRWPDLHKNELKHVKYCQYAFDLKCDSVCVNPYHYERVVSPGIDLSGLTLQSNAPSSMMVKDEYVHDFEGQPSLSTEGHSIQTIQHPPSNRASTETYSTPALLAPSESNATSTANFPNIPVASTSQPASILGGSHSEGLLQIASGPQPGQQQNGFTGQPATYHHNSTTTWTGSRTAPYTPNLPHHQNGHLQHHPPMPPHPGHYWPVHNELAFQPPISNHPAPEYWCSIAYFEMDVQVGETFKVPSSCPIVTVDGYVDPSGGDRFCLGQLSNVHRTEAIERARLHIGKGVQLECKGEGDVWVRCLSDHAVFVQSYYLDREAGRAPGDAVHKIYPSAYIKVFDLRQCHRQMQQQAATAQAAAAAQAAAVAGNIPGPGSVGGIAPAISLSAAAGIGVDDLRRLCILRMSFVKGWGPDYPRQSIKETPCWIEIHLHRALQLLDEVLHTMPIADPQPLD

T2: SARA Smad-binding domain (amino acids 665–721) on the 3xFlag-thioredoxin scaffold (UniProt O95405 767-823)
T2 construct: SARA, amino acids 665–721; cloned into the unique RsrII site of pCI-3xFLAG-Trx; also called SARA aa665–721; TrxSARA; source: HEK-293, transfected, in lysate
T2 sequence (looked up): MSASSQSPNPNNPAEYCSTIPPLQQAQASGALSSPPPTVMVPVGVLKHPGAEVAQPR

T3: Ski Smad-binding domain (amino acids 2–56) on the 3xFlag-thioredoxin scaffold (UniProt P12755 2-56)
T3 construct: Ski, amino acids 2–56; cloned into the unique RsrII site of pCI-3xFLAG-Trx; also called Ski aa2–56; TrxSki; source: HEK-293, transfected, in lysate
T3 sequence (looked up): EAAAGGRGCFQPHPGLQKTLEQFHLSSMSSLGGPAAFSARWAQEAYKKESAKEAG

B1: Renilla luciferase-Smad3 C338A (natural protein, UniProt P84022 1-425, looked up)
chain: MSSILPFTPPIVKRLLGWKKGEQNGQEEKWCEKAVKSLVKKLKKTGQLDELEKAITTQNVNTKCITIPRSLDGRLQVSHRKGLPHVIYCRLWRWPDLHSHHELRAMELCEFAFNMKKDEVCVNPYHYQRVETPVLPPVLVPRHTEIPAEFPPLDDYSHSIPENTNFPAGIEPQSNIPETPPPGYLSEDGETSDHQMNHSMDAGSPNLSPNPMSPAHNNLDLQPVTYCEPAFWCSISYYELNQRVGETFHASQPSMTVDGFTDPSNSERFCLGLLSNVNRNAAVELTRRHIGRGVRLYYIGGEVFAECLSDSAIFVQSPNCNQRYGWHPATVCKIPPGANLKIFNNQEFAALLAQSVNQGFEAVYQLTRMCTIRMSFVKGWGAEYRRQTVTSTPCWIELHLNGPLQWLDKVLTQMGSPSIRCSSVS
notes: Smad3; source: HEK-293, transfected together with constitutively active Alk5, in lysate
B2: Renilla luciferase-Smad3 W406A (natural protein, UniProt P84022 1-425, looked up)
chain: B1 chain with A338C, W406A
notes: as for B1
B3: Renilla luciferase-Smad3 V224A (natural protein, UniProt P84022 1-425, looked up)
chain: B1 chain with V224A, A338C
notes: as for B1
B4: Renilla luciferase-Smad3 Q322A/Y324A (natural protein, UniProt P84022 1-425, looked up)
chain: B1 chain with Q322A, Y324A, A338C
notes: as for B1
B5: Renilla luciferase-Smad3 Y226A (natural protein, UniProt P84022 1-425, looked up)
chain: B1 chain with Y226A, A338C
notes: as for B1
B6: Renilla luciferase-Smad3 S254A (natural protein, UniProt P84022 1-425, looked up)
chain: B1 chain with S254A, A338C
notes: as for B1
B7: Renilla luciferase-Smad3 K341A (natural protein, UniProt P84022 1-425, looked up)
chain: B1 chain with A338C, K341A
notes: as for B1
B8: Renilla luciferase-Smad3 P335A/P336A (natural protein, UniProt P84022 1-425, looked up)
chain: B1 chain with P335A, P336A, A338C
notes: as for B1
B9: Renilla luciferase-Smad3 V356R (natural protein, UniProt P84022 1-425, looked up)
chain: B1 chain with A338C, V356R
notes: as for B1
B10: Renilla luciferase-Smad3 W326A (natural protein, UniProt P84022 1-425, looked up)
chain: B1 chain with W326A, A338C
notes: as for B1
B11: Renilla luciferase-Smad3 L340A (natural protein, UniProt P84022 1-425, looked up)
chain: B1 chain with A338C, L340A
notes: as for B1
B12: Renilla luciferase-Smad3 E267A (natural protein, UniProt P84022 1-425, looked up)
chain: B1 chain with E267A, A338C
notes: as for B1
B13: Renilla luciferase-Smad3 Y298A (natural protein, UniProt P84022 1-425, looked up)
chain: B1 chain with Y298A, A338C
notes: as for B1

Each binder was assayed against T1, Flag-Smad4, full length (assay: co-IP; LUMIER: Renilla luciferase-Smad3 and Flag-tagged partner co-expressed with constitutively active Alk5 in HEK-293; Flag protein captured from cleared lysate (TNE: 10 mM Tris-HCl pH 7.8, 150 mM NaCl, 1 mM EDTA, 1% Igepal CA-630) on anti-Flag 96-well plates, 2 h at 4 °C; co-precipitated Renilla luciferase activity, TrxGA background subtracted, percent of wild-type Smad3). Details: partners not purified.

percent binding relative to wild-type Smad3 [%] | Binder
125 | B1
109 | B2
122 | B3
124 | B4
110 | B5
101 | B6
275 | B7
309 | B8
233 | B9
194 | B10
181 | B11
458 | B12
120 | B13

The binders below were run against T2, SARA Smad-binding domain (amino acids …) in the same assay as above. Details: partners not purified.

percent binding relative to wild-type Smad3 [%] | Binder
94 | B1
1 | B2
21 | B3
3 | B4
3 | B5
103 | B6
4 | B7
2 | B8
1 | B9
4 | B10
12 | B11
81 | B12
73 | B13

The binders below were run against T3, Ski Smad-binding domain (amino acids …) in the same assay as above. Details: partners not purified.

percent binding relative to wild-type Smad3 [%] | Binder
188 | B1
5 | B2
524 | B3
237 | B4
32 | B5
10 | B6
27 | B7
356 | B8
2 | B9
292 | B10
194 | B11
1150 | B12
271 | B13

These binders were tested against T4, Smurf2 Smad-binding domain (amino acids 252–330) on the Flag-thioredoxin scaffold (UniProt Q9HAU4 252-330) in the same assay as above. Details: partners not purified.
T4 construct: Smurf2, amino acids 252–330; also called Smurf2 aa252–330; TrxSmurf2; source: HEK-293, transfected, in lysate
T4 sequence (Q9HAU4 252-330): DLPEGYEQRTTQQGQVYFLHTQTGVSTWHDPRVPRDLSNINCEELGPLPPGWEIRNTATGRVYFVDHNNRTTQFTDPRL

percent binding relative to wild-type Smad3 [%] | Binder
153 | B1
1330 | B2
320 | B3
308 | B4
365 | B5
113 | B6
130 | B7
255 | B8
468 | B9
653 | B10
259 | B11
379 | B12
144 | B13
